To fix the notation:
B1: LIM and senescent cell antigen-like-containing domain protein 2, residues 13 to 71; numbered along this chain, Q7Z4I7 (parent)
chain: AVCQRCQARFSPAERIVNSNGELYHEHCFVCAQCFRPFPEGLFYEFEGRKYCEHDFQML

± gives the uncertainty stated by the source.

In the data set the parent is B1. In words: abundance fitness (aPCA) (normalised: wild type 0, dead -1); higher = more abundant; growth selection in yeast, the domain comes from the species named. The conditions noted are these: Homo sapiens.
As for R15H, the abundance fitness is -0.168 ± 0.1.
The figure for R15Y is -0.153 ± 0.083.
The figure for R15W is -0.595 ± 0.085; for S11Y it is -0.18 ± 0.15; for S11F it is -0.227 ± 0.12.
The figure for E53M is -0.286 ± 0.091; for E53G it is -0.25 ± 0.062; for E53H it is 0.061 ± 0.16.
E53F: the abundance fitness is -0.064 ± 0.14.
With E53W, the abundance fitness was -0.186 ± 0.083.
In the case of I16R, the abundance fitness was -0.114 ± 0.048.
With I16Q, the abundance fitness was -0.069 ± 0.061.
The figure for I16P is -0.104 ± 0.056.
With H54G, the abundance fitness came to 0.027 ± 0.067.
The figure for H54E is 0.189 ± 0.08; for H54Q it is 0.045 ± 0.08.
The figure for H54I is 0.14 ± 0.14; for H54C it is 0.074 ± 0.16; for E22K it is -0.01 ± 0.09.
The figure for E22S is -0.093 ± 0.057; for E22C it is 0.056 ± 0.1.
As for E22H, the abundance fitness is 0.101 ± 0.096.
Take N18M: the abundance fitness is -0.323 ± 0.12.
The figure for N18E is -0.116 ± 0.094; for N18Y it is -0.603 ± 0.23; for G48I it is -0.789 ± 0.19.
The figure for G48R is -0.083 ± 0.041.
Take F46I: the abundance fitness is -0.446 ± 0.14.
For F46C, the abundance fitness is -0.127 ± 0.1.
For the variant F46A, the abundance fitness was -0.039 ± 0.082.
Regarding F46H, the abundance fitness worked out at 0.114 ± 0.12.
Take V2E: the abundance fitness is -0.081 ± 0.093.
Take V2D: the abundance fitness was -0.128 ± 0.16.
Turning to V2C, the abundance fitness is -0.303 ± 0.14.
The figure for P39F is -0.565 ± 0.11; for P39Q it is -0.058 ± 0.068; for V30I it is -0.252 ± 0.12.
C31D: the abundance fitness is -0.574 ± 0.11.
For the variant C31G, the abundance fitness was -0.774 ± 0.085.
The figure for C31Q is -1.06 ± 0.14; for C31R it is -0.767 ± 0.072.
The figure for G21K is -0.016 ± 0.12; for G21L it is -0.17 ± 0.06.
The figure for G21R is -0.332 ± 0.073; for G21N it is -0.063 ± 0.11; for G21F it is -0.4 ± 0.097.
As to G21P, the abundance fitness is -0.457 ± 0.11.
Consider L23R, for which the abundance fitness was 0.017 ± 0.037.
On to L23P, for which the abundance fitness was determined as 0.027 ± 0.054.
The figure for L23A is 0.001 ± 0.052; for L23Y it is 0.186 ± 0.1; for L23D it is -0.106 ± 0.12.
Regarding L23F, the abundance fitness is -0.082 ± 0.1.
The figure for A13R is -0.211 ± 0.059; for A13P it is -0.076 ± 0.078.
The figure for A13Y is -0.207 ± 0.12; for S19Q it is -0.068 ± 0.094.
Turning to Q33E, the abundance fitness came out at 0.044 ± 0.1.
In the case of Q33N, the abundance fitness came to 0.053 ± 0.14.
The figure for C52N is -0.269 ± 0.27; for C52V it is -0.93 ± 0.11.
The figure for F35G is 0.195 ± 0.081; for F35Y it is 0.008 ± 0.095.
The figure for F35I is 0.01 ± 0.083; for E40Q it is -0.105 ± 0.06.
For the variant E40N, the abundance fitness is -0.236 ± 0.11.
On to E40A, for which the abundance fitness is -0.098 ± 0.054.
E40T: the abundance fitness is -0.15 ± 0.055.
For the variant L59E, the abundance fitness is -0.373 ± 0.17.
The figure for A32H is 0.118 ± 0.083.
The figure for A1R is -0.573 ± 0.22; for A1W it is -0.327 ± 0.47.
The figure for K50Q is -0.032 ± 0.098; for K50L it is 0.005 ± 0.055; for K50M it is 0.168 ± 0.1.
Regarding Y51M, the abundance fitness was determined as 0.088 ± 0.081.
The figure for Y51C is -0.298 ± 0.15; for P37G it is -0.328 ± 0.08.
P37F: the abundance fitness was -0.192 ± 0.11.
The figure for Q4D is 0.357 ± 0.11.
The figure for Q4L is 0.184 ± 0.059.
For the variant Q4R, the abundance fitness was -0.073 ± 0.064.
As to E47M, the abundance fitness is -0.222 ± 0.081.
The figure for E47N is -0.335 ± 0.1; for L42R it is 0.006 ± 0.057; for L42S it is -0.064 ± 0.07.
Consider D55R, for which the abundance fitness is -0.747 ± 0.057.
For F10S, the abundance fitness was -0.475 ± 0.07.
With F29C, the abundance fitness was -0.012 ± 0.097.
The figure for F29T is -0.011 ± 0.077; for F29Y it is -0.2 ± 0.11.
The figure for M58F is 0.154 ± 0.11; for M58H it is -0.052 ± 0.18; for M58Q it is 0.013 ± 0.12.
The figure for M58D is -0.106 ± 0.37.
Turning to M58A, the abundance fitness was -0.004 ± 0.14.
Take M58R: the abundance fitness was found to be 0.066 ± 0.056.
The figure for M58E is 0.061 ± 0.14; for Q57R it is 0.107 ± 0.067; for Q57G it is 0.118 ± 0.081.
The figure for C6D is -1.03 ± 0.29.
Regarding C6F, the abundance fitness is -0.677 ± 0.12.
With C6R, the abundance fitness was -0.544 ± 0.065.
For C6M, the abundance fitness was -0.34 ± 0.098.
The figure for R9M is -0.075 ± 0.074; for R9I it is -0.039 ± 0.14.
The figure for R9E is -0.084 ± 0.089.
The figure for R9G is 0.01 ± 0.07; for R36F it is -0.298 ± 0.15; for R36M it is -0.042 ± 0.083.
On to R36V, for which the abundance fitness is -0.399 ± 0.12.
Consider R36W, for which the abundance fitness is -0.423 ± 0.095.
For R36H, the abundance fitness is -0.024 ± 0.13.
The figure for E14H is -0.451 ± 0.27; for E14M it is -0.41 ± 0.097.
The figure for E14D is -0.075 ± 0.11; for A8K it is 0.166 ± 0.053; for A8T it is 0.015 ± 0.054.
The figure for A8W is 0.109 ± 0.051; for R5Y it is 0.29 ± 0.11.
R5C: the abundance fitness was -0.379 ± 0.2.
V17Y: the abundance fitness is -0.262 ± 0.14.
For V17W, the abundance fitness was -0.492 ± 0.077.
For C28Q, the abundance fitness is -0.872 ± 0.19.
The figure for C28G is -0.987 ± 0.14; for E26M it is -0.253 ± 0.095; for E26I it is -0.084 ± 0.17.
For E26N, the abundance fitness is -0.395 ± 0.27.
Regarding N20A, the abundance fitness is -0.005 ± 0.087.
The figure for N20P is -0.528 ± 0.12; for Y24C it is -0.116 ± 0.055.
The figure for Y24V is -0.072 ± 0.054.
Y24G: the abundance fitness was -0.238 ± 0.047.
As to E45L, the abundance fitness was -0.039 ± 0.37.
The figure for G41S is -0.228 ± 0.054; for G41C it is -0.205 ± 0.055.
The figure for G41T is -0.268 ± 0.08; for G41P it is -0.518 ± 0.13.
The figure for Y44I is -0.046 ± 0.11; for Y44T it is -0.253 ± 0.075; for Y44R it is -0.033 ± 0.072.
In the case of Y44H, the abundance fitness was determined as 0.024 ± 0.14.
On to Y44C, for which the abundance fitness was -0.009 ± 0.14.
As to C3D, the abundance fitness is -0.894 ± 0.24.
The figure for C3S is -0.832 ± 0.11; for P12C it is 0.188 ± 0.096.
As for P12E, the abundance fitness was found to be 0.035 ± 0.12.
For the variant P12Y, the abundance fitness is -0.093 ± 0.23.
The figure for P12N is -0.109 ± 0.49.
The figure for R49L is -0.169 ± 0.068.
The figure for C34Y is -0.933 ± 0.28; for C34K it is -0.901 ± 0.18; for C34T it is -1.13 ± 0.26.
With C34E, the abundance fitness is -0.788 ± 0.19.
The figure for F56A is -0.316 ± 0.27; for H25M it is -0.856 ± 0.1; for H25V it is -0.838 ± 0.1.
With H25F, the abundance fitness was -0.895 ± 0.16.
The figure for F38Y is -0.638 ± 0.14.
The figure for F43Y is 0.059 ± 0.23; for F43E it is -0.522 ± 0.087; for F43M it is -0.206 ± 0.086.
Turning to F43H, the abundance fitness was -0.204 ± 0.15.
With Q7W, the abundance fitness came out at 0.007 ± 0.052.
With Q7H, the abundance fitness worked out at 0.003 ± 0.068.
On to Q7D, for which the abundance fitness was -0.54 ± 0.11.
As to Q7I, the abundance fitness is -0.231 ± 0.061.
